Laboratory results reported in article PMC9482650, “Quantitative fragmentomics allow affinity mapping of interactomes” (Nature Communications, 2022).

Assays:
Assay in all cases: holdup assay
Design in all cases: key: below the threshold = too weak to quantify, mostly under pKd 3.1 to 4
ARHGEF11, O15085 = molecular target: T1, ARHGEF11, O15085
T1 sequence (O15085 42-136, limits assumed, looked up): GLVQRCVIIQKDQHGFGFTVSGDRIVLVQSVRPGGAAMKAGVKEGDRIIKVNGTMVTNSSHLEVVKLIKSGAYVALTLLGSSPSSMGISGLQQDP

CARD11, Q9BXL7 = molecular target: T2, CARD11, Q9BXL7
T2 sequence (Q9BXL7 662-765, limits assumed, looked up): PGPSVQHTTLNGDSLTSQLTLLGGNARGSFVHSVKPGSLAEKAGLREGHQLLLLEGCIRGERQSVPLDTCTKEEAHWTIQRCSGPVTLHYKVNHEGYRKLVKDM

DLG5_1, Q8TDM6 = molecular target: DLG5_1, Q8TDM6
DLG5_1, Q8TDM6, sequence (Q8TDM6 617-713): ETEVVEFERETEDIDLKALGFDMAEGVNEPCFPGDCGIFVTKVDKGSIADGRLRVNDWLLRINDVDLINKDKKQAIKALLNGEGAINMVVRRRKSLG

DVL3, Q92997 = molecular target: T3, DVL3, Q92997
T3 sequence (Q92997 244-331, limits assumed, looked up): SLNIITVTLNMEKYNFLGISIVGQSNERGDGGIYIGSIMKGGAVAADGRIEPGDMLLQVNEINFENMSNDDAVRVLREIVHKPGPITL

FRMPD1, Q5SYB0 = molecular target: T4, FRMPD1, Q5SYB0
T4 sequence (Q5SYB0 52-145, limits assumed, looked up): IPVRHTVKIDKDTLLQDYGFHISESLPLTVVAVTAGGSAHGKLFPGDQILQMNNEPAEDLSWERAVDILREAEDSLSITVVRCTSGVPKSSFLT

GORASP1, Q9BQQ3 = molecular target: GORASP1, Q9BQQ3
GORASP1, Q9BQQ3, sequence (Q9BQQ3 1-208): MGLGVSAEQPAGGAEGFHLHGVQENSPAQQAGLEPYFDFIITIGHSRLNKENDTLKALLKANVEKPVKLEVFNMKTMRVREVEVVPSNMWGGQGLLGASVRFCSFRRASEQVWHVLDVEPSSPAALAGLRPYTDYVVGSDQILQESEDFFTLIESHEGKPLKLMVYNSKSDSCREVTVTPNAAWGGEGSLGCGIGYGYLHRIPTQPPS

GRID2IP_2, A4D2P6 = molecular target: GRID2IP_2, A4D2P6
GRID2IP_2, A4D2P6, sequence (A4D2P6 272-370): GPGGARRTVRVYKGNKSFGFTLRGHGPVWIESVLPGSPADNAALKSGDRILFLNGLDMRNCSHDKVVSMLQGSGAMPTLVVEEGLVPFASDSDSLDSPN

GRIP1_4, Q9Y3R0 = molecular target: T5, GRIP1_4, Q9Y3R0
T5 sequence (Q9Y3R0 467-571, limits assumed, looked up): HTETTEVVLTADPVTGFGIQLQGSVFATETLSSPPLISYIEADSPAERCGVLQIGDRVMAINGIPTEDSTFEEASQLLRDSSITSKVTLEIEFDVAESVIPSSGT

GRIP2_3, Q9C0E4 = molecular target: GRIP2_3, Q9C0E4
GRIP2_3, Q9C0E4, sequence (Q9C0E4 238-339): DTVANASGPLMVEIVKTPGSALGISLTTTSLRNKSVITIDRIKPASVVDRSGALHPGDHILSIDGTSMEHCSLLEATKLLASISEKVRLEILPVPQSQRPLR

GRIP2_6, Q9C0E4 = molecular target: GRIP2_6, Q9C0E4
GRIP2_6, Q9C0E4, sequence (Q9C0E4 648-740): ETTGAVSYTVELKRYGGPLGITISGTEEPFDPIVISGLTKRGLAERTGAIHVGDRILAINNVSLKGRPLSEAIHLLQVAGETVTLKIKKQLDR

HTRA4, P83105 = molecular target: T6, HTRA4, P83105
T6 sequence (P83105 378-476, limits assumed, looked up): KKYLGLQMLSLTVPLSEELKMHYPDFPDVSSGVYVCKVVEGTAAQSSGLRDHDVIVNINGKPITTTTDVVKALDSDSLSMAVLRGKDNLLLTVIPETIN

Inadl_3, Q8NI35 = molecular target: Inadl_3, Q8NI35
Inadl_3, Q8NI35, sequence (Q8NI35 359-469): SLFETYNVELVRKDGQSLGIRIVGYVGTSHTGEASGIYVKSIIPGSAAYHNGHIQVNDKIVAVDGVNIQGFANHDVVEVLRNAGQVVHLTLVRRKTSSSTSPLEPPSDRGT

LIMK2, P53671 = molecular target: LIMK2, P53671
LIMK2, P53671, sequence (P53671 143-248): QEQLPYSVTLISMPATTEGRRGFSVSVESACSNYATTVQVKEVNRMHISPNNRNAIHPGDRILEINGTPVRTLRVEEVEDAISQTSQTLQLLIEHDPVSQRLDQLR

LNX1_3, Q8TBB1 = molecular target: LNX1_3, Q8TBB1
LNX1_3, Q8TBB1, sequence (Q8TBB1 500-596): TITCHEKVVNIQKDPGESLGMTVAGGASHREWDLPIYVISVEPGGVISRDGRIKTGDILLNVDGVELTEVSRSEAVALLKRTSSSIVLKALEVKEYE

LNX2_2, Q8N448 = molecular target: T7, LNX2_2, Q8N448
T7 sequence (Q8N448 334-432, limits assumed, looked up): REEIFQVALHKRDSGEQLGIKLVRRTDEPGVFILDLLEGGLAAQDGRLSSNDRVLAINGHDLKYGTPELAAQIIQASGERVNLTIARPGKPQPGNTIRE

LNX2_3, Q8N448 = molecular target: T8, LNX2_3, Q8N448
T8 sequence (Q8N448 463-564, limits assumed, looked up): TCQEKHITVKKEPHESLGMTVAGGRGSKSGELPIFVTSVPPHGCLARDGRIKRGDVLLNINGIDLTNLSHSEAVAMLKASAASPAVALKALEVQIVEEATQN

MAGI1_2, Q96QZ7 = molecular target: MAGI1_2, Q96QZ7
MAGI1_2, Q96QZ7, sequence (Q96QZ7 456-580): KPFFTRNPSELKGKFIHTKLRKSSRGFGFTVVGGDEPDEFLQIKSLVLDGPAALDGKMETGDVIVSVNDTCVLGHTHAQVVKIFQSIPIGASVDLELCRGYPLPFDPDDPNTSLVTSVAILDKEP

MAGI2_5, Q86UL8 = molecular target: MAGI2_5, Q86UL8
MAGI2_5, Q86UL8, sequence (Q86UL8 915-1017): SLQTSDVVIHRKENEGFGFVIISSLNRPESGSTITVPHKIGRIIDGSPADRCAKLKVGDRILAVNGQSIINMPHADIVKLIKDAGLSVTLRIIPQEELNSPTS

NHERF4_2, Q86UT5 = molecular target: NHERF4_2, Q86UT5
NHERF4_2, Q86UT5, sequence (Q86UT5 220-308): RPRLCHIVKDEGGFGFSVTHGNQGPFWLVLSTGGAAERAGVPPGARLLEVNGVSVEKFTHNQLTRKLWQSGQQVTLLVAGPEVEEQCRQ

NOS1, P29475 = molecular target: NOS1, P29475
NOS1, P29475, sequence (P29475 9-101): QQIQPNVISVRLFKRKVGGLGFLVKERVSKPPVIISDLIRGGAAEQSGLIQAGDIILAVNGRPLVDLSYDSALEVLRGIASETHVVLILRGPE

PARD3_3, Q8TEW0 = molecular target: PARD3_3, Q8TEW0
PARD3_3, Q8TEW0, sequence (Q8TEW0 582-685): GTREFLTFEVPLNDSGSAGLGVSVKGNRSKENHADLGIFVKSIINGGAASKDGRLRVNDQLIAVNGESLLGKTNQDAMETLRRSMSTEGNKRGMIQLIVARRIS

PDZD2_2, O15018 = molecular target: T9, PDZD2_2, O15018
T9 sequence (O15018 329-429, limits assumed, looked up): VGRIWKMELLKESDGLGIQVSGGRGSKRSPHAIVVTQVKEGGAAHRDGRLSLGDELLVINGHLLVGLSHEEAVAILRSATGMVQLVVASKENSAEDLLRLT

PDZRN3_1, Q9UPQ7 = molecular target: T10, PDZRN3_1, Q9UPQ7
T10 sequence (Q9UPQ7 244-349, limits assumed, looked up): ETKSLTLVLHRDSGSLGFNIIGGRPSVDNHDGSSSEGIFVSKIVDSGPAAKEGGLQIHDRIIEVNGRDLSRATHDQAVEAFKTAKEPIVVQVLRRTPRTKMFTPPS

PTPN13_1, Q12923 = molecular target: T11, PTPN13_1, Q12923
T11 sequence (Q12923 1088-1188, limits assumed, looked up): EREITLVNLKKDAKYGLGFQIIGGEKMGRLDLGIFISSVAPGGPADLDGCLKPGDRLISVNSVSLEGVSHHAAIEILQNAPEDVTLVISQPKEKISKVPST

RAPGEF6, Q8TEU7 = molecular target: T12, RAPGEF6, Q8TEU7
T12 sequence (Q8TEU7 525-625, limits assumed, looked up): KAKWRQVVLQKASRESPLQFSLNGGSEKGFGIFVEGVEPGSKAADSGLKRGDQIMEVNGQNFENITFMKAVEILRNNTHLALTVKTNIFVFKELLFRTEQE

SNX27, Q96L92 = molecular target: SNX27, Q96L92
[1] = plain residues with an end cap or a label only (N-terminal biotin on a linker: ahx)
[2] = plain residues with an end cap or a label only (N-terminal biotin on a linker: ado-ado)

Binder: QNTDDVQTSF [ACE2, Q9BYF1]
- pKd (ARHGEF11, O15085; [1]): below the threshold
- pKd (CARD11, Q9BXL7; [1]): below the threshold
- pKd (DLG5_1, Q8TDM6; [1]): below the threshold
- pKd (DVL3, Q92997; [1]): below the threshold
- pKd (FRMPD1, Q5SYB0; [1]): below the threshold
- pKd (GORASP1, Q9BQQ3; [1]): below the threshold
- pKd (GRID2IP_2, A4D2P6; [1]): below the threshold
- pKd (GRIP1_4, Q9Y3R0; [1]): below the threshold
- pKd (GRIP2_3, Q9C0E4; [1]): below the threshold
- pKd (GRIP2_6, Q9C0E4; [1]): below the threshold
- pKd (HTRA4, P83105; [1]): below the threshold
- pKd (Inadl_3, Q8NI35; [1]): 3.66
- pKd (LIMK2, P53671; [1]): below the threshold
- pKd (LNX1_3, Q8TBB1; [1]): below the threshold
- pKd (LNX2_2, Q8N448; [1]): below the threshold
- pKd (LNX2_3, Q8N448; [1]): below the threshold
- pKd (MAGI1_2, Q96QZ7; [1]): below the threshold
- pKd (MAGI2_5, Q86UL8; [1]): 4.21
- pKd (NHERF4_2, Q86UT5; [1]): below the threshold
- pKd (NOS1, P29475; [1]): below the threshold
- pKd (PARD3_3, Q8TEW0; [1]): below the threshold
- pKd (PDZD2_2, O15018; [1]): below the threshold
- pKd (PDZRN3_1, Q9UPQ7; [1]): below the threshold
- pKd (PTPN13_1, Q12923; [1]): below the threshold
- pKd (RAPGEF6, Q8TEU7; [1]): below the threshold
- pKd (SNX27, Q96L92; [1]): 4.95

Binder: QSGLYESEEL [MYOT, Q9UBF9]
- pKd (ARHGEF11, O15085; [2]): 4.38
- pKd (CARD11, Q9BXL7; [2]): below the threshold
- pKd (DLG5_1, Q8TDM6; [2]): below the threshold
- pKd (DVL3, Q92997; [2]): below the threshold
- pKd (FRMPD1, Q5SYB0; [2]): below the threshold
- pKd (GORASP1, Q9BQQ3; [2]): below the threshold
- pKd (GRID2IP_2, A4D2P6; [2]): below the threshold
- pKd (GRIP1_4, Q9Y3R0; [2]): below the threshold
- pKd (GRIP2_3, Q9C0E4; [2]): below the threshold
- pKd (GRIP2_6, Q9C0E4; [2]): 4.67
- pKd (HTRA4, P83105; [2]): 3.69
- pKd (Inadl_3, Q8NI35; [2]): below the threshold
- pKd (LIMK2, P53671; [2]): below the threshold
- pKd (LNX1_3, Q8TBB1; [2]): below the threshold
- pKd (LNX2_2, Q8N448; [2]): below the threshold
- pKd (LNX2_3, Q8N448; [2]): below the threshold
- pKd (MAGI1_2, Q96QZ7; [2]): below the threshold
- pKd (MAGI2_5, Q86UL8; [2]): 4.02
- pKd (NHERF4_2, Q86UT5; [2]): below the threshold
- pKd (NOS1, P29475; [2]): below the threshold
- pKd (PARD3_3, Q8TEW0; [2]): 3.59
- pKd (PDZD2_2, O15018; [2]): below the threshold
- pKd (PDZRN3_1, Q9UPQ7; [2]): below the threshold
- pKd (PTPN13_1, Q12923; [2]): below the threshold
- pKd (RAPGEF6, Q8TEU7; [2]): 3.57
- pKd (SNX27, Q96L92; [2]): below the threshold

Binder: KKMLQRRTLL [OR8G1, Q15617]
- pKd (ARHGEF11, O15085; [2]): 3.89
- pKd (CARD11, Q9BXL7; [2]): below the threshold
- pKd (DLG5_1, Q8TDM6; [2]): below the threshold
- pKd (DVL3, Q92997; [2]): below the threshold
- pKd (FRMPD1, Q5SYB0; [2]): below the threshold
- pKd (GORASP1, Q9BQQ3; [2]): 4.06
- pKd (GRID2IP_2, A4D2P6; [2]): 5.09
- pKd (GRIP1_4, Q9Y3R0; [2]): below the threshold
- pKd (GRIP2_3, Q9C0E4; [2]): below the threshold
- pKd (GRIP2_6, Q9C0E4; [2]): below the threshold
- pKd (HTRA4, P83105; [2]): below the threshold
- pKd (Inadl_3, Q8NI35; [2]): below the threshold
- pKd (LIMK2, P53671; [2]): below the threshold
- pKd (LNX1_3, Q8TBB1; [2]): below the threshold
- pKd (LNX2_2, Q8N448; [2]): below the threshold
- pKd (LNX2_3, Q8N448; [2]): below the threshold
- pKd (MAGI1_2, Q96QZ7; [2]): 4.85
- pKd (MAGI2_5, Q86UL8; [2]): 4.59
- pKd (NHERF4_2, Q86UT5; [2]): below the threshold
- pKd (NOS1, P29475; [2]): 3.92
- pKd (PARD3_3, Q8TEW0; [2]): below the threshold
- pKd (PDZD2_2, O15018; [2]): below the threshold
- pKd (PDZRN3_1, Q9UPQ7; [2]): 3.6
- pKd (PTPN13_1, Q12923; [2]): below the threshold
- pKd (RAPGEF6, Q8TEU7; [2]): below the threshold
- pKd (SNX27, Q96L92; [2]): 3.75

Binder: PYSESDDDWC [CACNA1A, O00555]
- pKd (ARHGEF11, O15085; [2]): 3.51
- pKd (CARD11, Q9BXL7; [2]): below the threshold
- pKd (DLG5_1, Q8TDM6; [2]): below the threshold
- pKd (DVL3, Q92997; [2]): below the threshold
- pKd (FRMPD1, Q5SYB0; [2]): below the threshold
- pKd (GORASP1, Q9BQQ3; [2]): below the threshold
- pKd (GRID2IP_2, A4D2P6; [2]): below the threshold
- pKd (GRIP1_4, Q9Y3R0; [2]): below the threshold
- pKd (GRIP2_3, Q9C0E4; [2]): below the threshold
- pKd (GRIP2_6, Q9C0E4; [2]): below the threshold
- pKd (HTRA4, P83105; [2]): below the threshold
- pKd (Inadl_3, Q8NI35; [2]): below the threshold
- pKd (LIMK2, P53671; [2]): below the threshold
- pKd (LNX1_3, Q8TBB1; [2]): below the threshold
- pKd (LNX2_2, Q8N448; [2]): 4
- pKd (LNX2_3, Q8N448; [2]): below the threshold
- pKd (MAGI1_2, Q96QZ7; [2]): below the threshold
- pKd (MAGI2_5, Q86UL8; [2]): below the threshold
- pKd (NHERF4_2, Q86UT5; [2]): below the threshold
- pKd (NOS1, P29475; [2]): 3.48
- pKd (PARD3_3, Q8TEW0; [2]): 3.89
- pKd (PDZD2_2, O15018; [2]): 5.3
- pKd (PDZRN3_1, Q9UPQ7; [2]): below the threshold
- pKd (PTPN13_1, Q12923; [2]): below the threshold
- pKd (RAPGEF6, Q8TEU7; [2]): below the threshold
- pKd (SNX27, Q96L92; [2]): 4.09
